Our source for the Kd, fold difference in binding against KPNA1 without eVP24 and fold difference in binding against KPNA5 without eVP24 values is paper PMC4188415.

What all share (assay): ITC
Experiment [1] deals with ΔIBB-KPNA5 (66-509) (human).
Experiment [2] deals with KPNA1 in a 1:1 complex with eVP24 (human | Ebola virus) (UniProt P52294).
The target of experiment [3] is KPNA5 in a 1:1 complex with eVP24 (competition ITC) (human | Ebola virus) (UniProt O15131).
Chain of UniProt O15131 (O15131 whole entry, chain 1 of 2): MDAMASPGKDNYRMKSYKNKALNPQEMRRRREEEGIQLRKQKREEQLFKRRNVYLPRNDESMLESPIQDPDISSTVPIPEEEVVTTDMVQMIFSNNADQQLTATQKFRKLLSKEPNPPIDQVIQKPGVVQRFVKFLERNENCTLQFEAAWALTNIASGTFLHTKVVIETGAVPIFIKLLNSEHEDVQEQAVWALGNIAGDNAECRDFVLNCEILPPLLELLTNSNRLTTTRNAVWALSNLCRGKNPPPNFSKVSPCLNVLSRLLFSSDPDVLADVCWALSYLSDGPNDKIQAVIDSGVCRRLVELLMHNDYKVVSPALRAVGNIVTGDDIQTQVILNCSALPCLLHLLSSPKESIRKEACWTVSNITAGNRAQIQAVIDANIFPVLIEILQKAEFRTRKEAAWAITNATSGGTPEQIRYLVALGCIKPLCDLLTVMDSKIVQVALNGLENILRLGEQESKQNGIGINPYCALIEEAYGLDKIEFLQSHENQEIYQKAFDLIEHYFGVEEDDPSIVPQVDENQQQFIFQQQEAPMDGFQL
Chain of UniProt O15131 (Q05322 whole entry, chain 2 of 2, further chain): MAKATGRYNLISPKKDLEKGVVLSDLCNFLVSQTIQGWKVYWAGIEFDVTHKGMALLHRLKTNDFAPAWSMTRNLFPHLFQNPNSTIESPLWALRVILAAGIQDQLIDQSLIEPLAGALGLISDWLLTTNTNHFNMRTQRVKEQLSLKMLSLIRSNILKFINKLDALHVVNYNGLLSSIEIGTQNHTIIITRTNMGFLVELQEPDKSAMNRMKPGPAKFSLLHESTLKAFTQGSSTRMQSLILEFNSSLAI

Chain of UniProt P52294 (P52294 whole entry, chain 1 of 2): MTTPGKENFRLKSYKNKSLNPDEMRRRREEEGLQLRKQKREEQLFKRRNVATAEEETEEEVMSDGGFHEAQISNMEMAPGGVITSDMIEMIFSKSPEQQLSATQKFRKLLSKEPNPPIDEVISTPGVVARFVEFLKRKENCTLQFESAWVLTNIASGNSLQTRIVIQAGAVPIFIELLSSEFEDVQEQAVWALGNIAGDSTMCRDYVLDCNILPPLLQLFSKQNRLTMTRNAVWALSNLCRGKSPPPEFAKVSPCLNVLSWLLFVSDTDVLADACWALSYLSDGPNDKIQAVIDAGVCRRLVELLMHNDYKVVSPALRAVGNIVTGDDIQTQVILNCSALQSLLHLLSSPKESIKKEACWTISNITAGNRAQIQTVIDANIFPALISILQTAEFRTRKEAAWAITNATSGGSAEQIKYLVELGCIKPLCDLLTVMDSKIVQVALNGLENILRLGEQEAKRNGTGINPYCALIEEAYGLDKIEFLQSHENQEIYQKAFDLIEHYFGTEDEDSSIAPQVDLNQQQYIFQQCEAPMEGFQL
Chain of UniProt P52294 (Q05322 whole entry, chain 2 of 2, further chain): as the sequence (Q05322 whole entry, chain 2 of 2, further chain) above

“MBP-tagged eVP24 (residues 11-237) (from UniProt Q05322 11-237) (domain or fragment)” displayed a Kd in experiment [1] of 1 to 10 nM.
Regarding nucleoplasmin peptide (bipartite cNLS), the fold difference in binding against KPNA1 without eVP24 in experiment [2] was found to be 2 fold. In experiment [3], this substance came in with a fold difference in binding against KPNA5 without eVP24 of 2 fold.
